From US20190169301A1 (Boehringer Ingelheim, published 2019) come the findings set out here.

In general, Kd refers to the constant that tells how readily two partners part at equilibrium. The term EC50 denotes the midpoint of the concentration-response curve. In general, EC50 (read off the curve) refers to the concentration needed to bring the measured effect to its halfway point.

Changes are numbered by the printed parent chain.

In experiment [1] the target is T1, human CD40 on cells (CD40-transfected HEK293 cells, Ramos cells, human B cells, human platelets) (human, UniProt P25942 21-277). Description: cell-based or functional assay.
The target of a further experiment is T2, human CD40-Fc protein (human, UniProt P25942 21-193).
T2 construct: also called recombinant CD40 protein; not shown: Fc part
As to the kind of experiment: ForteBio Octet, human CD40-Fc, +/- human serum. On the procedure: Due to antibody and CD40-Fc bivalency avidity effects prevent Kds below 100 pM from being determined accurately. In addition, the binding to CD40-Fc was analyzed in the absence and presence of 50% human serum and no significant effect of serum on binding was observed (data not shown)
A general note: Biolayer interferometry detects binding as a change in optical thickness at a sensor tip.

The target in experiment [2] is T1, human CD40 on cells (CD40-transfected …). As to the kind of experiment: flow cytometry, human CD40-transfected HEK293 cells. On the procedure:
(§1) The specific binding of humanized antibodies to cellular CD40 was analyzed by flow cytometry using human CD40-transfected HEK293 cells. Concentration-dependent binding of Antibody A, Antibody B, and Antibody C was observed. […] No binding was detected on CD40 negative cells such as non-transfected HEK293 cells or the T cell line HSB-2 thus confirming selective binding to CD40 (data not shown).
On the technique in general: A flow cytometer gives signals particle by particle.

Experiment [3] shares this target. Description: flow cytometry (MFI) on CD40-transfected HEK cells. As for the experimental part: as §1
The target is the same in experiment [4]. As to the kind of experiment: cell binding, flow cytometry (cell type not given).
Experiment [5] has as its target T3, cynomolgus monkey CD40 on cells (B cells, platelets) (cynomolgus monkey, UniProt G7PG38 21-278).
T3 construct: whole, on cells
As to the kind of experiment: EC50 ratio human/cyno; ratio > 1 means increased binding to Cyno compared to Human.

The target in experiment [6] is T1, human CD40 on cells (CD40-transfected …). Description: flow cytometry (MFI) on human CD40-transfected HEK-293 cells. On the procedure:
as §1

Experiment [7] has the same target. Description: flow cytometry, directly labeled antibody, B cells in human whole blood (n = 6); range in brackets.
Experiment [8] has the same target. Description: flow cytometry, directly labeled antibody, platelets in human whole blood (n = 5); range in brackets.
Experiment [9] has as its target T3, cynomolgus monkey CD40 on cells (B …). Description: flow cytometry, directly labeled antibody, B cells in cynomolgus whole blood (n = 5); range in brackets.
For experiment [10] the target is unchanged. Description: flow cytometry, directly labeled antibody, platelets in cynomolgus whole blood (n = 5); range in brackets.
Experiment [11] has as its target T1, human CD40 on cells (CD40-transfected …). Description: flow cytometry (mean fluorescence intensity), FITC-labeled antibody on human platelets.
Experiment [12] shares this target. Description: cell-based or functional assay. This is another data set of the same source.

T2 sequence (P25942 21-193 limits assumed): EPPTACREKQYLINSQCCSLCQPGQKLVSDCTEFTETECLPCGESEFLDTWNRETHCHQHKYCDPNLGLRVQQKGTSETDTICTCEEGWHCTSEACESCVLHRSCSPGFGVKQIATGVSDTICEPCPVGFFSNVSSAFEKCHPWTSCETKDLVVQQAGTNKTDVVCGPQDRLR
T1 sequence (P25942 21-277): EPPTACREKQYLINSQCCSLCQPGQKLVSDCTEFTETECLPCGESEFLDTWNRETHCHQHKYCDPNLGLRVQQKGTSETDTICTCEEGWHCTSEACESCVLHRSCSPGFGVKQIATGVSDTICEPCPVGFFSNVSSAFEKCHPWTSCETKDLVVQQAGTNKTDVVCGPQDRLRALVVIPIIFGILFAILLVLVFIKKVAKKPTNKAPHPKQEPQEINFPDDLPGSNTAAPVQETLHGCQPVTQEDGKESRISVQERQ

B1: Antibody C (IgG1KO) (antibody, V domains shown)
VH: QVQLVQSGAEVKKPGASVKVSCTASGFNIKDYYVHWVKQAPGQGLEWMGRIDPEDGDSKYAPKFQGKATMTADTSTSTVYMELSSLRSEDTAVYYCTTSYYVGTYGYWGQGTLVTVSS
VL: DIQMTQSPSSLSASVGDRVTITCSASSSVSYMLWFQQKPGKAPKLLIYSTSNLASGVPSRFSGSGSGTDFTLTISSLQPEDFATYYCQQRTFYPYTFGGGTKVEIKR
notes: also called 2H11-159-94
As for B1, in experiment [1], the “B cell proliferation:Agonism (SI*)” value was < 2 SI (Stimulation Index). The same molecule gave a Kd with human CD40-Fc protein of less than 0.1 nM. For the same molecule, the values for the EC50 in [2] and in [4] were roughly 1 nM and 1.7 nM, respectively. Besides, the concentration giving a half-maximal response (EC50 (read off the curve)) in experiment [3] was roughly 0.8 nM. In addition, the “Species cross-react.:Hu/Cyno Binding (EC50 ratios)” value in experiment [5] was 1 ratio.

B2: Antibody A (IgG1KO) (antibody, V domains shown)
VH: EVQLVESGGGLVKPGGSLRLSCAASGFTFSDYGMHWVRQAPGKGLEWVAYISSGNRIIYYADTVKGRFTISRDNAKNSLYLQMNSLRAEDTALYYCARQDGYRYAMDYWAQGTLVTVSS
VL: DIVMTQSPDSLAVSLGERATMSCKSSQSLLNSGNQKNYLTWHQQKPGQPPKLLIYWTSTRESGVPDRFSGSGSGTDFTLTISSLQAEDVAVYYCQNDYTYPLTFGGGTKVEIKR
notes: also called 20E2-12
On to B2, for which the “B cell proliferation:Agonism (SI*)” value in [1] is < 2 SI (Stimulation Index). The Kd in the experiment with human CD40-Fc protein was less than 0.1 nM. In addition, the EC50 is roughly 1 nM in [2] and 1.2 nM in experiment [4]. Also, the “EC50 (read off the curve)” value in [3] was roughly 1 nM. Besides, in experiment [5], the “Species cross-react.:Hu/Cyno Binding (EC50 ratios)” value came out at 3 ratio.

B3: Antibody B (IgG1KO) (antibody, V domains shown)
VH: B2 VH with L93V, A110G
VL: B2 VL with R18K, A19V, M21I, S22N
In the case of B3, the “B cell proliferation:Agonism (SI*)” value in experiment [1] is < 2 SI (Stimulation Index). For the same molecule, the Kd in the experiment with human CD40-Fc protein is less than 0.1 nM. Further, the concentration giving a half-maximal response (EC50) in [2] is roughly 1 nM; in experiment [4], 1.5 nM; in [6] it was 1 nM; in [7] it was 1.8 nM; in [8] it was 4.6 nM; in experiment [9], 2.1 nM. In experiment [10], this molecule returned an EC50 of 3.9 nM. For the same molecule, the 50% effective concentration (EC50 (read off the curve)) in experiment [3] is roughly 2 nM. Moreover, the “Species cross-react.:Hu/Cyno Binding (EC50 ratios)” value in experiment [5] is 2 ratio.

B4: 2H11 (murine anti-human CD40 antibody) (antibody, V domains shown)
VH: EVQLQQSGAELVRPGASVKLSCTASGFNIKDYYVHWVKQRPEKGLEWIGRIDPEDGDSKYAPKFQGKATMTADTSSNTAYLHLSSLTSEDTAVYYCTTSYYVGTYGYWGQGTTLTVSS
VL: QIVLTQSPAIMSASPGEKVTITCSASSSVSYMLWFQQKPGTSPKLWIYSTSNLASGVPARFGGSGSGTSYSLTISRMEAEDAATYYCQQRTFYPYTFGGGTKLEIK
notes: Mouse monoclonal antibody
On to B4, for which the binding result in [11] is listed as “binds”.

B5: 4D11 (Kirin/Astellas) anti-CD40 antibody (antibody, V domains shown)
VH: QLQLQESGPGLLKPSETLSLTCTVSGGSISSPGYYGGWIRQPPGKGLEWIGSIYKSGSTYHNPSLKSRVTISVDTSKNQFSLKLSSVTAADTAVYYCTRPVVRYFGWFDPWGQGTLVTVSS
VL: AIQLTQSPSSLSASVGDRVTITCRASQGISSALAWYQQKPGKAPKLLIYDASNLESGVPSRFSGSGSGTDFTLTISSLQPEDFATYYCQQFNSYPTFGQGTKVEIK
For the molecule B5, the “B cell proliferation assay, average IC50” value in experiment [12] is roughly 0.02 nM. Moreover, the “B cell proliferation:Agonism (SI*)” value in [1] was < 2 SI (Stimulation Index). In addition, the dissociation constant Kd with human CD40-Fc protein was less than 0.1 nM. In addition, the EC50 was roughly 1 nM in [2] and 0.9 nM in experiment [4].
